Measurements from article PMC9144871 (International Journal of Molecular Sciences, 2022).

Assays:
[1] = target: the molecule itself; test: mass spectrometry; S-plug3 checked for its dimeric state by mass spectrometry; conditions not given
SARS-CoV-2 spike RBD-His [2] = target: T1, SARS-CoV-2 spike RBD-His (SARS-CoV-2, UniProt P0DTC2); test: SPR; details: both partners purified
[3] = target: the molecule itself; test: SEC-MALS; analytical SEC-LS: Superdex 75 increase 10/30 with miniDAWN TREOS and refractive index detector; about 1.0 mg protein loaded; 50 mM Tris-HCl, 150 mM NaCl, 2.5% glycerol, pH 7.8; 0.5 mL/min
SARS-CoV-2 spike RBD-His [4] = target: T1, SARS-CoV-2 spike RBD-His; test: SPR; details: both partners purified; remark: listed apart in the source

| Binder | binding result [1] | Kd (SARS-CoV-2 spike RBD-His [2]) | stoichiometry N [3] | Kd (SARS-CoV-2 spike RBD-His [4]) |
| --- | --- | --- | --- | --- |
| S-plug3 (designed binder, also called S-plug2 with C-terminal arm PPGC; cysteine-locked S-plug) SAMEEQAKFFLDKLQHELEDTQYQLLYKALALNKSQQEELQKQYKKTYDEYVTLAKKWAKAASSIPLNSITDEKLYKAMEKTASSPPGC | binds | 39.5 ± 1.1 nM |  |  |
| S-plug (designed binder, also called prototype S-plug) STIEEQAKTFLDKFNHEAEDLFYQSSLASWNYNTNITEENVQNMNNAGDKWSAFLKEQSTLAQMYPLQEIQNQTVKQQLQALQQN |  |  | 2 | 50 to 200 nM |
| S-plug2 (designed binder, also called thermo-stabilised S-plug; mutated form of S-plug) SAMEEQAKFFLDKLQHELEDTQYQLLYKALALNKSQQEELQKQYKKTYDEYVTLAKKWAKAASSIPLNSITDEKLYKAMEKTASS |  | 61.7 ± 2.3 nM | 2 |  |
